± gives the half width of the 95% confidence interval.
Assays:
[1] = folding stability dG unfold from trypsin proteolysis; higher = more stable
Outline: (§1)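 Bayesian fitting of sequencing counts gave K50 for each design. Unfolding free energy followed by setting this against a sequence-predicted unfolded-state K50 and a shared folded-state K50, either per protease or with trypsin and chymotrypsin combined. The designs, under 80 residues and lacking cysteine, were digested in a PA-tagged cDNA display format at 11 threefold-diluted protease concentrations and without protease, and only those with AlphaFold2 dimer inter-PAE above 15 were kept.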

[2] = folding stability dG unfold from chymotrypsin proteolysis; higher = more stable
Outline: as §1

[3] = folding stability dG unfold (combined trypsin and chymotrypsin); higher = more stable
Outline: as §1

SAGGSNPNMFRLKVEIEPYEYRDPDGQPKARVWKIDIEMEPGMPPNMAKNIASNFQNRGLPVKIEPSAGGSA [r2_456_TrROS]
folding stability dG unfold [1]: 0.102 ± 0.18 kcal/mol
folding stability dG unfold [2]: 0.689 ± 0.12 kcal/mol
folding stability dG unfold [3]: 0.578 ± 0.16 kcal/mol

SAGGSASAPVPTSVSVSVSSDPASGLTTIPTTVTYNGKTFPMSVTTTPSGTVVTKVGGSTFTVPAASAGGSA [r15_507_JUSTAS]
folding stability dG unfold [1]: 0.0583 ± 0.075 kcal/mol
folding stability dG unfold [2]: -0.286 ± 0.11 kcal/mol
folding stability dG unfold [3]: -0.0606 ± 0.077 kcal/mol

SAGGSAGGMVISLPNNYKIKLGITDAEFDEVKVYTGPNGPKKLVSGANIKLKIGISIYKSNDNSSAGGSAGG [r6_585_TrMRF]
folding stability dG unfold [1]: 1.24 ± 0.036 kcal/mol
folding stability dG unfold [2]: 1.43 ± 0.19 kcal/mol
folding stability dG unfold [3]: 1.4 ± 0.17 kcal/mol

SAGGSAGGSPKWKTIEITVLVPGMPAEEIAKNIANNFGIEITDIDVQLFPNGWVVVSATIRVKSAGGSAGGS [r12_359_TrROS]
folding stability dG unfold [1]: 2.59 ± 0.087 kcal/mol
folding stability dG unfold [2]: 3.16 ± 0.051 kcal/mol
folding stability dG unfold [3]: 2.99 ± 0.096 kcal/mol

SAKTKTIEIEVKIKLIEIDPKTGKKTEKEFTAKATITYDEENNVVTIKIEFKDNGKTITITLPPGAKIKSAG [r14_587_TrROS_Hall]
folding stability dG unfold [1]: 2.1 ± 0.098 kcal/mol
folding stability dG unfold [2]: 2.25 ± 0.14 kcal/mol
folding stability dG unfold [3]: 2.26 ± 0.27 kcal/mol

SAGGSAGGKTISIPGSIEEIQEKLGGPIDEVEHNKPGSGSYKPKNGKPITIHFDSPEDILDFFKSAGGSAGG [r6_19_TrROS]
folding stability dG unfold [1]: 0.318 ± 0.032 kcal/mol
folding stability dG unfold [2]: -0.0753 ± 0.15 kcal/mol
folding stability dG unfold [3]: 0.206 ± 0.12 kcal/mol

SPNFRISPEIKNAIKRALKENEPGKKVEIRMRYPDGPTIMISIDKPGSINIEVEPDPGKPIMEFEFDIKDSA [r9_132_TrROS]
folding stability dG unfold [1]: 0.732 ± 0.079 kcal/mol
folding stability dG unfold [2]: 0.825 ± 0.069 kcal/mol
folding stability dG unfold [3]: 0.873 ± 0.16 kcal/mol

SPPVSTTTPVPDPENGVVVATVTLTTDPTTGEKTLILKSPEGKTKTVTLSPDETFPVEGLPKGLTATSSVSA [r9_1150_JUSTAS]
folding stability dG unfold [1]: -0.942 ± 0.47 kcal/mol
folding stability dG unfold [2]: 0.437 ± 0.082 kcal/mol
folding stability dG unfold [3]: 0.0862 ± 0.14 kcal/mol

SAGGSSPPGVKVEVTVEVTYIPSKGGYKLTFYRPGGEKVDTKELEKDKLEEAKEELKAKGFDVVKIKKSAGG [r13_765_JUSTAS]
folding stability dG unfold [1]: -0.402 ± 0.41 kcal/mol
folding stability dG unfold [2]: 0.882 ± 0.18 kcal/mol
folding stability dG unfold [3]: 0.347 ± 0.21 kcal/mol

SAGGSAGGSVLPDVLRTLFPDAKVTVKVTEVSETSATVDVEVEVPVPGGSTRRFRLKLEVPLSSAGGSAGGS [r20_78_TrMRF]
folding stability dG unfold [1]: 1.78 ± 0.029 kcal/mol
folding stability dG unfold [2]: 2.34 ± 0.044 kcal/mol
folding stability dG unfold [3]: 2.14 ± 0.066 kcal/mol

SAMKVKVIVINPDGKPQEFEFEAEEGDPEKLVEEVEAEIKKLHPNSDIKFKAEVLEVKPDGEITILVSDSAG [r14_622_TrMRF]
folding stability dG unfold [1]: 2.03 ± 0.19 kcal/mol
folding stability dG unfold [2]: 2.77 ± 0.05 kcal/mol
folding stability dG unfold [3]: 2.52 ± 0.14 kcal/mol

SAGGSAGGSKEKYIKIVVEVNGEKKVIVVKAKTIEELEELAKKLNLEVEIEKREDGYLVIRLKSAGGSAGGS [r12_810_TrROS_Hall]
folding stability dG unfold [1]: 3.21 ± 0.053 kcal/mol
folding stability dG unfold [2]: 3.36 ± 0.058 kcal/mol
folding stability dG unfold [3]: 3.29 ± 0.058 kcal/mol

SAGGSAGGIYIFFPPEDLEPIAPFTITIEVKRRDPDGDEPQPRKQTIPIRIYRAPNNNLMIEPGSAGGSAGG [r6_278_TrROS]
folding stability dG unfold [1]: 0.742 ± 0.11 kcal/mol
folding stability dG unfold [2]: 0.919 ± 0.19 kcal/mol
folding stability dG unfold [3]: 0.881 ± 0.087 kcal/mol

SAGGSAGGSMTVERNVTSEEEAEEWREEIEKELGVKVEEVIREETEEGDLRVKFVIEIPEDLKSAGGSAGGS [r12_577_JUSTAS]
folding stability dG unfold [1]: 0.37 ± 0.069 kcal/mol
folding stability dG unfold [2]: -0.367 ± 0.2 kcal/mol
folding stability dG unfold [3]: 0.0537 ± 0.18 kcal/mol

SAGGSAFRVQTWDDGKPRKIPIGESLDDLKDQIDDNPNYPIYIEFPNGKPFHMPWSDIKNMIDQLKSAGGSA [r15_36_TrROS]
folding stability dG unfold [1]: 0.172 ± 0.17 kcal/mol
folding stability dG unfold [2]: -0.196 ± 0.47 kcal/mol
folding stability dG unfold [3]: -0.0315 ± 0.28 kcal/mol

SAGGMKTAVLTLEVPGLPKRLVLIAGESEEEYKKLAAEAEKPGYEFLGYTTLEELVERTGLPASLLLSAGGS [r16_438_JUSTAS]
folding stability dG unfold [1]: 0.916 ± 0.085 kcal/mol
folding stability dG unfold [2]: 1.07 ± 0.28 kcal/mol
folding stability dG unfold [3]: 0.969 ± 0.19 kcal/mol

SAGGMKIIEIEDRGPGKFAGPETVLEALRKALPGIPIEVLDYDPEKHVIRIRVPEEAVPRIVEAFKSSAGGS [r8_235_TrMRF]
folding stability dG unfold [1]: 3.68 ± 0.098 kcal/mol
folding stability dG unfold [2]: 3.96 ± 0.056 kcal/mol
folding stability dG unfold [3]: 3.88 ± 0.057 kcal/mol

SAGGMESSVTTTPDPNSDTTTTTTTVPLPDETTTTTTTTTTAPGTVTTTTTTYPPGGTPTTTTSTTASAGGS [r16_733_JUSTAS]
folding stability dG unfold [1]: 2.38 ± 0.17 kcal/mol
folding stability dG unfold [2]: 1.61 ± 0.052 kcal/mol
folding stability dG unfold [3]: 1.92 ± 0.12 kcal/mol

SAGGSADGRVVELPVRIRLYRRDPVSGRWELVEEFEVPVRVPAPKDAVVGLRIERRGDRFRIVVGVSAGGSA [r15_537_TrMRF]
folding stability dG unfold [1]: 2.74 ± 0.08 kcal/mol
folding stability dG unfold [2]: 3.537 ± 0.019 kcal/mol
folding stability dG unfold [3]: 3.25 ± 0.07 kcal/mol

SAGGSAGGSIKITIYDIMRMLGPNAPPAEWVEKVKHLAKWLADKLGLPDVEIEVEVMSPDQFPSAGGSAGGS [r12_666_TrROS]
folding stability dG unfold [1]: 3.3 ± 0.25 kcal/mol
folding stability dG unfold [2]: 4.49 ± 0.13 kcal/mol
folding stability dG unfold [3]: 4.06 ± 0.17 kcal/mol

SAGGSGIDFDIEFHNNHITIDIYMYDPNGQPIFEMTMTIPIPPVPPPPVPEVKVDDPEEAKEAKNQSAGGSA [r2_332_TrROS]
folding stability dG unfold [1]: 0.751 ± 0.14 kcal/mol
folding stability dG unfold [2]: 2.35 ± 0.17 kcal/mol
folding stability dG unfold [3]: 1.89 ± 0.21 kcal/mol

Reference: the supplement of paper PMC12764529
